Experiments:
[1] = biological target: full-length human TLR4 expressed as fusion protein with GAL4 (pTLR4) (human); assay: cell-based or functional assay
[2] = biological target: full-length human TLR4 expressed as fusion protein with GAL4 (pTLR4) (human); assay: flow cytometry of pSPA + pTLR4 transfected HEK293 cells stained with isotype control antibody [A)(iii]
[3] = biological target: full-length human TLR4 expressed as fusion protein with GAL4 (pTLR4) (human); assay: flow cytometry of pSPA-mutant + pTLR4 transfected HEK293 cells stained with isotype control antibody [A)(iii]

## SPA-mutant lacking SPA4 peptide region, expressed as fusion protein with VP16 (pSPA-mutant) (from UniProt Q8IWL2 21-248)
[1]
  LPS-induced NF-κB luciferase reporter activity in co-transfected HEK293 cells: 44 RLU

## (IC) (antibody)
[2]
  % positive cells in region R: 1.06%
[3]
  % positive cells in region R: 1.65%
